B1: mCherry-UVR8-GFP (wild-type UV … LOCUS 8, from the pFRET-NcCg-DEST vector) [Arabidopsis thaliana] / itself (parent)
chain: MAEDMAADEVTAPPRKVLIISAGASHSVALLSGDIVCSWGRGEDGQLGHGDAEDRPSPTQLSALDGHQIVSVTCGADHTVAYSQSGMEVYSWGWGDFGRLGHGNSSDLFTPLPIKALHGIRIKQIACGDSHCLAVTMEGEVQSWGRNQNGQLGLGDTEDSLVPQKIQAFEGIRIKMVAAGAEHTAAVTEDGDLYGWGWGRYGNLGLGDRTDRLVPERVTSTGGEKMSMVACGWRHTISVSYSGALYTYGWSKYGQLGHGDLEDHLIPHKLEALSNSFISQISGGWRHTMALTSDGKLYGWGWNKFGQVGVGNNLDQCSPVQVRFPDDQKVVQVSCGWRHTLAVTERNNVFAWGRGTNGQLGIGESVDRNFPKIIEALSVDGASGQHIESSNIDPSSGKSWVSPAERYAVVPDETGLTDGSSKGNGGDISVPQTDVKRVRI

Assays:
Conditions in all cases: with itself, read off a plot
[1] = variants of: B1; test: FRET by acceptor photobleaching in tobacco leaves, pFRET-NcCg-DEST vector
[2] = variants of: B1; test: FRET (sensitized emission ratio mCherry(488)/GFP(488)) in tobacco leaves, pFRET-NcCg-DEST vector
[3] = variants of: B1; test: intermolecular FRET (sensitized emission ratio mCherry(488)/GFP(488)) in tobacco leaves, pFRET-2in1-DEST vector
[4] = +UV-B: 3 μmol m–2 s–1 broadband UV-B for 1 hour, parent: 11
[5] = +UV-B: 3 μmol m–2 s–1 broadband UV-B for 1 hour, parent: 0.5
[6] = +UV-B: 3 μmol m–2 s–1 broadband UV-B for 1 hour, parent: 0.44

For MAEDMAADEVTAPPRKVLIISAGASHSVALLSGDIVCSWGRGEDGQLGHGDAEDRPSPTQLSALDGHQIVSVTCGADHTVAYSQSGMEVYSWGWGDFGRLGHGNSSDLFTPLPIKALHGIRIKQIACGDSHCLAVTMEGEVQSWGRNQNGQLGLGDTEDSLVPQKIQAFEGIRIKMVAAGAEHTAAVTEDGDLYGWGWGRYGNLGLGDRTDRLVPERVTSTGGEKMSMVACGWRHTISVSYSGALYTYGWSKYGQLGHGDLEDHLIPHKLEALSNSFISQISGGFRHTMALTSDGKLYGWGWNKFGQVGVGNNLDQCSPVQVRFPDDQKVVQVSCGWRHTLAVTERNNVFAWGRGTNGQLGIGESVDRNFPKIIEALSVDGASGQHIESSNIDPSSGKSWVSPAERYAVVPDETGLTDGSSKGNGGDISVPQTDVKRVRI [chain 1 W285F], the response [1, 4] was 17%, the response ([1]; -UV-B, parent: 18) was 17% and the response [2, 5] was 0.58. For the same variant, the response ([2]; -UV-B, parent: 0.56) was 0.59, the response [3, 6] was 0.51 and the response ([3]; -UV-B, parent: 0.5) was 0.5.

In the case of MAEDMAADEVTAPPRKVLIISAGASHSVALLSGDIVCSWGRGEDGQLGHGDAEDRPSPTQLSALDGHQIVSVTCGADHTVAYSQSGMEVYSWGWGNFGRLGHGNSSNLFTPLPIKALHGIRIKQIACGDSHCLAVTMEGEVQSWGRNQNGQLGLGDTEDSLVPQKIQAFEGIRIKMVAAGAEHTAAVTEDGDLYGWGWGRYGNLGLGDRTDRLVPERVTSTGGEKMSMVACGWRHTISVSYSGALYTYGWSKYGQLGHGDLEDHLIPHKLEALSNSFISQISGGWRHTMALTSDGKLYGWGWNKFGQVGVGNNLDQCSPVQVRFPDDQKVVQVSCGWRHTLAVTERNNVFAWGRGTNGQLGIGESVDRNFPKIIEALSVDGASGQHIESSNIDPSSGKSWVSPAERYAVVPDETGLTDGSSKGNGGDISVPQTDVKRVRI [chain 1 D96N D107N], the response [1, 4] is reported as 9.7%, the response ([1]; -UV-B, parent: 18) is reported as 9.6% and the response [2, 5] is reported as 0.43. It also gave a response ([2]; -UV-B, parent: 0.56) of 0.43, a response [3, 6] of 0.33 and a response ([3]; -UV-B, parent: 0.5) of 0.33.

— article PMC6374739
